# Experiment: soluble on expression in E. coli; label from the status in PepcDB or PDB records
row,Sequence,soluble on expression in E. coli
1,MSLKTLLPTSTAGSLPKPSWLAQPEKLWSPWKLQDEELIEGKRDALRLSLNDQQQAGIDIVSDGEQTRQHFVTTFIEHLSGVDFEKRETVRIRNRYDASVPTVVGAVSREKPVFVEDAKFLRQQTRQPIKWALPGPMTMIDTLYDSHYKSREKLAWEFAKILNQEARELEAAGVDIIQFDEPAFNVFFDEVNDWGVATLEKAIEGLKCETAVHICYGYGIKANTDWKKTLGSEWRQYEEAFPKLQKSNIDLISLECHNSRVPMDLIELIRGKKVMVGAIDVATSAIETPEEVADTLRKALRFVDADKLYPCTNCGMAPLSRQVARSKLNALGAGAEIIRRELSVEGHHHHHH,soluble
2,MSLKTQQLLTIGQLAKFSGLHVKALRYYEKIGILNPTAIDKQNGYRYYSYAHIPYVNMIKICANYGLPLKQFTHYILDDGSIDMNAILKEAQLKIEEKERQLQSDERYLRFFSEQINFSQKLDKTTNLHIEQGNKDYFLLPFTGEMLSAKYYEAVRCALAEIEKCQMTFDDRVGCYFKYDDQQVNSFIAIKIKECQEDKTNFLSLCLNHRHIHAQHLTKDRIQPKIKELHQKESINEFLILETFESPYQLSQPHLEMQYVVDNTGEGHHHHHH,soluble
3,MSLKVDQKEEQVQKRLEALDKLTKTLAIVEQYYVDDQNISDLVDKSLSGLLSNLDAHSSFLNEKDFNDMKIQTNGEFGGLGITVGMKDGALTVVSPIEGTPADKAGIKSGDIILKINDEATLGINLNDAVDKMRGKPKTQITLTIFRKGATKPFDVTLTREIIKIESVYAKMIENENILYLRVTNFDKNVVDVASKELKKYPNVKGVILDLRNNPGGLLNQAIGLVNLFVDKGVIVSQKGRIASENQEYKADPKNKISNASLVVLVNGGSASASEIVSGALQDLKRGVIVGENTFGKGSVQQIIPINKTEALRLTIARYYLPSGRTIQAVGVKPDIEVFPGKVNTQEGHHHHHH,soluble
4,MSLKVLIIGGVAAGTKTAAKIKREMGDNCSVTILNKGDDISYAGCGLPYYVGKIIEDKSSLIVNTPESFSKLTGAEVRCGVEVTSIDRNAKQVTLKTLSTGEKENLSYDKLVIATGADPIKPPIPGIDLPGVFFMRTPNDAIKLRDSIENGIKRAVVIGGGFIGLEIAENLSAMGIRVSVVDMAEHVMPGFDTDFAEYVENHMADKGIMIFTGDQVVGIEGENKVEKLRTKNRAIKTDLVVMSVGIRPNTGFLKDTGLEFAPNNTIIADEYMLTNDKDIYVVGDCAFVKNSLTNKPTWSPMGSSANHEGRICAQNISGKSKTYNGVLGTTVVKLPELNAGKTGLSKEIAEKEGYNVCSVTIATDDKAHYYPGASNFIIRMVAEKNTRKLLGVQVMGPGAVDKIVDIAATAITLGADLYSLESMDLAYAPPFSTAIHPFVVAVNVLQNKLNGELDSVLLDEIEDFDSWTKLDVSKAPSIPSLRYIPVGEINGEIEGLAKDEKILLICAKGKNSYMAQNRLRRFGYTNTKVLEGGILFYPNLKVMEEGHHHHHH,soluble
5,MSLKYKLLVLDLDGTLTNAKKEITLHNREALIRVQQQGVKLILASGRPTFGIVPLADELRMKEFGGFILSYNGGEIIDWSTGEIVYANVLPDEVIPRLYECATRNQLPILTYDRQYIITEYPDDVYVRKEAFLNKMQIYPSTDFLKDIRLPLPKCLIVGEPHRLIPIEAELSVELQGQLSVYRSEPFFLELVPQGIDKAQSLSVLLNKLNMNREEMVAVGDGYNDLSMIQFAGLGVAMGNAQEPVKKAADYITLSNEEDGVAAVVNKFFTKAPEKGEGHHHHHH,soluble
6,MSLKYSSTTADYLVWSDAMNLIRKLAKDENYKISLLIALGCFTGLRISDILSLRWKQILDADEFTVIEKKTDKVRTIRLNPQLQHHIKECYEHINPVGINAPILISQKGTIFTVQRINIILKEVKKKYRLKIKNFSCHSLRKTFGRQVYNMNSDNAELALVKLMELFNHSSVAITKRYLGLRQEEILQTYDCLSF,not soluble
7,MSLLITAGVIALGFNFKRFQNEYDWLTLKPEQKLNVPLVNQLPDLPNGCEVTSLAMLLKYYDINVSKLELSSNIKHVSSFVGNNYRGNPHVGFVGYMSIKNAGWCVYNEPLYNVARKYTKRIRNYTGNDFVQVLKLVSKRHPVVIITTLKFDRVNDMQTWSTKQGKVHVTPSSHACVITGYNKKKGIVYVNDPYGVKNKKVSLKKIEASYNQQGKQALYIEEGHHHHHH,soluble
8,MSLLKCSICINDERITRILIVDGRPICKECKVFLEHPPDKEKIKKELEEILSKVDKAIVAYSGGKDSIVALYLAKEKYSIDVEAVMVDHGFIAPQAIKNAKNVAKYLDVPLTIIKRDYSDIFREALLKAKSPCRKCSRRTMEILRKYALKKGYRYMITGHELPFGHHPYRLMSGGIIQVRILSLMSEEERMKILKKLPVELPELPGYTSNCLILGPALQRFWERHGYSFEHRRIAALVRYGLLNKEKALKKVQKPEVPQWQWELVKKKLKLEDGFEGHHHHHH,soluble

# Source: the DeepSol protein solubility set
